Data set [1] deals with His-tagged recombinant E1 enzyme. Briefly: Influence of metal ions / reducing agent on dihydrodaidzein synthesis activity of E1 enzyme. The following applies: for influence of metal ions on the conversion activity from daidzein to dihydrodaidzein: 100 μl of 100 mM metal ion solution in 1000 μl, 37° C., 2 hours, HPLC (FIG. 26); for activation of E1 enzyme (dihydrodaidzein synthesizing enzyme activity): general statement in the description. It is filed as biochemical, Lactococcus 20-92 strain. As to the method: Using the His-tagged recombinant E1 enzyme ([…]) expressed in Escherichia coli, purified by Ni-Sepharose, as an enzyme source, the influence of metal ions on the conversion activity from daidzein to dihydrodaidzein was examined. Various metals (MnCl2.2H2O, FeSO4.7H2O, CaCl2.2H2O, Zn(CH3C00)2.2H2O, CoSO4.7H2O, MgSO4.7H2O, NiSO4.6H2O) were dissolved in distilled water to obtain a concentration of 100 mM. Using the metal ion solution, an enzyme reaction mixture of the composition below was prepared, and was reacted at 37° C. for 2 hours to measure the activity. [table] After incubation, 3 mL of ethyl acetate was added to the obtained enzyme reaction mixture for extraction. After drying, the extract was dissolved by the mobile phase (eluent). The dissolved product was analyzed by HPLC to measure the contents of daidzein and dihydrodaidzein in the enzyme reaction mixture.

For data set [2], the system named is dihydrodaidzein. As to the kind of experiment: Tetrahydrodaidzein biosynthesis activity in centrifuged supernatant of disrupted cell material and NADH or NADPH dependency (Example B2). It counts as biochemical, Lactococcus 20-92 strain. As to conditions: centrifuged supernatant of disrupted cells; 37° C., 2 hours; HPLC (FIG. 11). As to the method: The frozen cells were thawed and centrifuged at 4° C. for 15 minutes (5,000×G). The pellet was used in the test below. First, the pellet (wet weight 2.7 g) was suspended in 10 ml of a 0.1 M phosphate-potassium solution containing 1 mM PMSF and 5 mM sodium hydrosulfite. After preheating at 37° C. for 5 minutes, lysozyme was added in an amount of 100 mg per gram of the pellet (wet weight) to cause a reaction at 37° C. for 1.5 hours. Then, an equivalent amount of 0.1 M dipotassium phosphate solution was added to the reaction mixture, and the mixture was vigorously agitated with a vortex mixer after adding zirconia-silica beads (3 ml). The cells were then disrupted with a sonicator (Branson Sonifier Cell Disruptor 200) (3 cycles of a 5-minute sonication and a 2-minute rest). The disrupted cell suspension was centrifuged at about 10,000×G for 15 minutes to obtain a supernatant, which was then used as an enzyme source. An enzyme reaction mixture of the composition below was prepared, and was incubated at 37° C. for 2 hours. After incubation, 5 mL of ethyl acetate was added to the enzyme reaction product for extraction. Then, the product was dried to prepare a sample for HPLC analysis. [table]

Data set [3] deals with disrupted cell material of Lactococcus 20-92 strain. Briefly: Enzyme reaction with disrupted cell material of Lactococcus 20-92 strain as enzyme source (Example B1). It counts as biochemical. The following applies: 10 μg/mL substrate; 2 mM NADPH, 2 mM NADH; 37° C., 2 hours; HPLC (FIG. 9). As to the method: The Lactococcus 20-92 strain cells preserved at −80° C. were quickly thawed. The cells were suspended by tapping, and centrifuged at 4° C. (8,000 rpm×5 min) using a centrifuge VC-960 (Taitec). After removing the supernatant, 0.1 M potassium phosphate buffer/1 mM PMSF (phenylmethanesulfonyl fluoride)/2 mM DTT (dithiothreitol)/5 mM sodium hydrosulfite (pH 7.0) were added to obtain a cell suspension. The cell suspension was placed in a 2 ml tube prepared to include zirconia-silica beads (about 0.8 mL, 0.1 mm, 1 lb; Wakenyaku Co., Ltd.), and the tube was charged with 0.1 M potassium phosphate solution/1 mM PMSF/2 mM DTT/5 mM sodium hydrosulfite (pH 7.0) to fill the tube almost completely. For disruption, the tube was closed and kept on ice, where a cycle of 6,500 rpm×20 sec centrifugation and ice-cooling was repeated four times using FastPrep®-FP100A (Thermo Electron Corporation). The resulting disrupted cell material was used as an enzyme source in an enzyme reaction.
A 1 mL enzyme reaction mixture of the composition below, containing 0.1 ml of the disrupted cell material obtained in (1) was prepared, and the mixture was incubated at 37° C. for 2 hours. After incubation, 3 mL of ethyl acetate was added to the resulting enzyme reaction product for extraction. The product was dried to prepare a sample for HPLC analysis. […]

Data set [4] deals with dihydrodaidzein. Briefly: Enzyme property of E2 enzyme (tetrahydrodaidzein synthesis using dihydrodaidzein as a substrate). It counts as biochemical. As for the experimental part: Regarding polypeptides (Bb) and (Bc), the activity to synthesize tetrahydrodaidzein using dihydrodaidzein as a substrate can be confirmed as follows. First, a polypeptide of interest is added to a substrate solution of the composition below at a concentration of 0.001 mg/mL. The solution is then incubated at 37° C. for 2 hours to check for the presence or absence of tetrahydrodaidzein in the solution. The presence of tetrahydrodaidzein in the solution after incubation is used as an indicator of the polypeptide's activity to synthesize tetrahydrodaidzein using dihydrodaidzein as a substrate. Since E2 polypeptide has an enzyme activity to synthesize tetrahydrodaidzein using dihydrodaidzein as a substrate, E2 polypeptide is also referred to as E2 enzyme. […] The optimal temperature of E2 enzyme is in the vicinity of 37° C., and the optimal pH is 4.5.

The test system of another data set is daidzein. As to the kind of experiment: Enzyme property of E1 enzyme (dihydrodaidzein synthesis using daidzein as a substrate). It counts as biochemical. As for the experimental part: Regarding polypeptides (Ab) and (Ac), the activity to synthesize dihydrodaidzein using daidzein as a substrate can be confirmed as follows. First, a polypeptide of interest is added to a substrate solution of the composition below at a concentration of 0.001 mg/mL. The solution is then incubated at 37° C. for 2 hours to check for the presence or absence of dihydrodaidzein in the solution. The presence of dihydrodaidzein in the solution after incubation is used as an indicator of the polypeptide's activity to synthesize dihydrodaidzein using daidzein as a substrate.
Since E1 polypeptide has an enzyme activity to synthesize dihydrodaidzein using daidzein as a substrate, E1 polypeptide is also referred to as E1 enzyme. E1 enzyme is activated by the presence of a reducing agent such as Na2S2O4 and metal ions such as Fe^2+ and Mn^2+. […] The optimal temperature of E1 enzyme is in the vicinity of 30° C., and the optimal pH is 7.0.

The subject of another data set is tetrahydrodaidzein. Briefly: Enzyme property of E3 enzyme (equol synthesis using tetrahydrodaidzein as a substrate). It counts as biochemical. As for the experimental part: Regarding polypeptides (Cb) and (Cc), the activity to synthesize equol using tetrahydrodaidzein as a substrate can be confirmed as follows. First, a polypeptide of interest is added to a substrate solution of the composition below at a concentration of 0.001 mg/mL. The solution is then incubated at 37° C. for 2 hours to check for the presence or absence of equol in the solution. The presence of equol in the solution after incubation is used as an indicator of the polypeptide's activity to synthesize equol using tetrahydrodaidzein as a substrate. Since E3 polypeptide has an enzyme activity to synthesize equol using tetrahydrodaidzein as a substrate, E3 polypeptide is also referred to as E3 enzyme. The optimal temperature of E3 enzyme is in the vicinity of about 23 to 37° C., and the optimal pH is 4.5.

Turning to `[Fe+2]` [Fe^2+], in data set [1], the “influence of metal ions on the conversion activity from daidzein to dihydrodaidzein” value is “stimulated the activity” and the “activation of E1 enzyme (dihydrodaidzein synthesizing enzyme activity)” value (shortened to “activation of E1 enzyme”) is “activated”.

For the molecule `[Mn+2]` [Mn^2+], in data set [1], the “influence of metal ions on the conversion activity from daidzein to dihydrodaidzein” value is listed as “stimulated the activity” and the “activation of E1 enzyme” value is “activated”.

For the molecule `NC(=O)C1=CN([C@@H]2O[C@H](COP(=O)(O)OP(=O)(O)OC[C@H]3O[C@@H](n4cnc5c(N)ncnc54)[C@H](OP(=O)(O)O)[C@@H]3O)[C@@H](O)[C@H]2O)C=CC1` [NADPH], in the data set on dihydrodaidzein [2], the “coenzyme dependency of the conversion of dihydrodaidzein into tetrahydrodaidzein” value was “much more strongly”.

On to `O=S([O-])S(=O)[O-].[Na+].[Na+]` [Na2S2O4], for which the “activation of E1 enzyme” value in data set [1] was “activated”.

On to `O=C1c2ccc(O)cc2OCC1c1ccc(O)cc1` (centres unmarked) [dihydrodaidzein], for which the “enzyme reaction product from dihydrodaidzein as a substrate” value in data set [3] was “production of trans-tetrahydrodaidzein”.

B1: E2 enzyme: polypeptide (SEQ ID NO: 7) having an activity to synthesize tetrahydrodaidzein using dihydrodaidzein as a substrate (protein, listed as Lactococcus garvieae)
chain: MAQEVKVPKMPGAPVFGKWISPEESVGQRLKGKKILLTGTTKGVGRVTQELLCAHGAFVCGSGRTPGVAASVADELKAKGYQAAGMDVDLSDYDAVKKWVEECAELMGGIDVVINNASHPGMAPFGEMTPEIWNYGIKNELDLVYNVCNCAWPYLQKADGASIIITSSTVALQGSNSPQACHAACKGACLSLARQLAAEGGPFGIRCNSVTPGLVWTEAMSNIPKEMASGLVAAQTTQQAVDPMDIAYAYLFLASDESRQITAANIPVDGGCAGAVTGGMQGEIEV
Turning to B1, in the data set with dihydrodaidzein [4], the “coenzyme requirement of E2 enzyme” value is given as “requires NADPH or NADH as a coenzyme”, the “optimal pH of E2 enzyme” value is given as 4.5, the “optimal temperature of E2 enzyme” value is approximately 37 °C and the “reverse reaction of E2 enzyme” value is given as “synthesize dihydrodaidzein from tetrahydrodaidzein”.

B2: E1 enzyme: polypeptide (SEQ ID NO: 1) having an activity to synthesize dihydrodaidzein using daidzein as a substrate (protein, listed as Lactococcus garvieae)
chain: MKNKFYPKTFERGYIGNLEVENRAIRMPMGTELGNPDGSPSWASLKAYAEAADGGTGIVFMDNAGVTQFHHVGLSLASDNYIGPMSVLAKTIKQHGAIPGLQIVHPGRDAAFVRGDDLISSSRIQWEPWYENGGAVPRELTIEEIHDFVGYFGDCALRAQTAGFEIVDVHAACGVLLSNFLSPRNNTRNDMYGGSLHNRARFLLEVIRDIKKKCPNLPLAIRLSGIDFEPDGITIEETCEVAKMCEAAGADAINITWGSHAEVINAAGLLSKHGANHVEAAKMIKDAVSIPTMLCGGIYSPEIGEKLLEDGVCDFIGIGKPALADPMWAKKAAEGRPEDIRPCIGCGVGCHDRGMLSGGVVQCAVNAALYKFDEPVYPQAEVPKKVIIIGAGPAGCEAAITAKKCGHDVTIYEKRKIGGVLKEATVSDSKEDLGRLITYYETQLKKEGIEVIYEEATADTVVAGGFDVAIVACGATVRNLNIDGQDDPSVVYAMDFLDNDCKSDADRVVVVGGGIVGAETALILAEERGKDVTITTRSPEFFVSGVMGIAYMVRLGMAGVTIKPSTQLVAVKDGKPMFAGPRGLETLDVDQTIISSGFVPTFNQFRAQIEEKCEDVRVIGIGDCKASRMVMDAVHEGYIAGCNL
As for B2, in the data set on daidzein, the “coenzyme requirement of E1 enzyme” value is listed as “requires NADPH or NADH as a coenzyme”, the “optimal pH of E1 enzyme” value is 7.0, the “optimal temperature of E1 enzyme” value is approximately 30 °C and the “reverse reaction of E1 enzyme” value is “synthesize daidzein from dihydrodaidzein”.

B3: E3 enzyme: polypeptide (SEQ ID NO: 13) having an activity to synthesize equol using tetrahydrodaidzein as a substrate (protein, listed as Lactococcus garvieae)
chain: MAEFDVEYDLVVVGGGASGKSAALIAAREGKRVVVLEKMPETGGLSMYAEGTAAFESSIQNELGTPRLSKYHFPTKQEGIEKFMGYSHQRANYDVVRAFVENSAETIDIYRDLGVVYKACDIAAEDDPNEVWTFHLPEGLGAHCQEVLLDAIQKLDVDIFTSTPAKELIIEDGAVVGVVAESDGEPLRVGGKAVILATGGMGSSPERIFKYSWFAPAAYNMNTLTPLQNVGDGLDLALSAGADPTYITTCPILAAGGRDMTMDSQVGGAGVNPGVWINKTGRRFAAESVAENIGDIGTYYGKQPGGVVWSILSQADIDRLVAEGSEIAIGEFVVYHKPMERLPIELEAHLESGLVKKAGSFEELAALIDVPVDTFVATMADYNEACEKGYDDAFMKKPQYLRPMVEGPFYAIPLATGTMGSAGGIRINGNMQVVDADYNAIPGLYAVGLDATGLYGDSYNMEVPGAANGFAHTSGRIAARHAISTM
As to B3, in the data set on tetrahydrodaidzein, the “optimal pH of E3 enzyme” value is recorded as 4.5 and the “reverse reaction of E3 enzyme” value is given as “synthesize tetrahydrodaidzein from equol”.
